Article PMC4287381 (Virology, 2009)

Target: GST-p53 C-terminal domain (residues 300–393) (human, UniProt P04637 300-393)
Test: pull-down

Sequence of GST-p53 C-terminal domain (residues 300–393) (P04637 300-393): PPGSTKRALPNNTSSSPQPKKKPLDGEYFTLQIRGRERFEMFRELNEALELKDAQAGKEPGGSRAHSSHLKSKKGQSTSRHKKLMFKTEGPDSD

B1: Full-length EBNA3C, in vitro translated, 35S-labelled (natural protein)
chain: MESFEGQGDSRQSPDNERGDNVQTTGEHDQDPGPGPPSSGASERLVPEESYSRDQQPWGQSRGDENRGWMQRIRRRRRRRAALSGHLLDTEDNVPPWLPPHDITPYTARNIRDAACRAVKQSHLQALSNLILDSGLDTQHILCFVMAARQRLQDIRRGPLVAEGGVGWRHWLLTSPSQSWPMGYRTATLRTLTPVPNRVGADSIMLTATFGCQNAARTLNTFSATVWTPPHAGPREQERYAREAEVRFLRGKWQRRYRRIYDLIELCGSLHHIWQNLLQTEENLLDFVRFMGVMSSCNNPAVNYWFHKTIGNFKPYYPWNAPPNENPYHARRGIKEHVIQNAFRKAQIQGLSMLATGGEPRGDATSETSSDEDTGRQGSDVELESSDDELPYIDPNMEPVQQRPVMFVSRVPAKKPRKLPWPTPKTHPVKRTNVKTSDRSDKAEAQSTPERPGPSEQSSVTVEPAHPTPVEMPMVILHQPPPVPKPVPVKPTPPPSRRRRGACVVYDDDVIEVIDVETTEDSSSVSQPNKPHRKHQDGFQRSGRRQKRAAPPTVSPSDTGPPAVGPPAAGPPAAGPPAAGPPAAGPPAAGPPAAGPRILAPLSAGPPAAGPHIVTPPSARPRIMAPPVVRMFMRERQLPQSTGRKPQCFWEMRAGREITQMQQEPSSHLQSATQPTTPRPSWAPSVCALSVMDAGKAQPIESSHLSSMSPTQPISHEEQPRYEDPDAPLDLSLHPDVAAQPAPQAPYQGYQEPPAPQAPYQGYQEPPPPQAPYQGYQEPPAHGLQSSSYPGYAGPWTPRSQHPCYRHPWAPWSQDPVHGHTQGPWDPRAPHLPPQWDGSAGHGQDQVSQFPHLQSETGPPRLQLSLVPLVSSSAPSWSSPQPRAPIRPIPTRFPPPPMPLQDSMAVGCDSSGTACPSMPFASDYSQGAFTPLDINATTPKRPRVEESSHGPARCSQATAEAQEILSDNSEISVFPKDAKQTDYDASTESELD
modifications: 35S methionine label
- fold interaction against the DNA binding domain of p53 (residues 100–300): 1.7 fold
